In patent US7244606B2, “Modified BACE” (Elan Pharmaceuticals, Inc., priority 2002, dated 2007):
Where “and” joins values, the source holds several entries; their conditions need not be identical. Equal entries are not always repeated.

Assays:
[1] = system: substrate S-1 (SEQ ID NO: 10); assay: BACE activity assay: cleavage of substrate S-1, HPLC tryptophan fluorescence peak area; format: biochemical; conditions: for Activity Assays (Fluorescence Peak Area): 50 μl BACE sample containing 5–10 pmoles protein, 5 μl 1 mM substrate S-1, NaOAc pH 5.0, 1–2 hours at 37° C.
Procedure: The activity of P33K-BACE expressed in E. coli according the above Examples was compared to the activity of human BACE prepared as above without the P33K mutation, and to human BACE expressed in CHO cells.
To assay for BACE activity, the following activity assay conditions were utilized, unless specifically indicated otherwise: 20 μl 1 M sodium acetate (NaOAc), pH 5.0; 125 μl H2O; 50 μl BACE sample containing 5–10 pmoles protein; and 5 μl 1 mM substrate S-1 (SEQ ID NO: 10).
The 200 μl assay reaction was incubated for 1–2 hours at 37° C. Activity was expressed as fluorescence peak area generated by the liberation of a fluorescent (Tryptophan fluorescence) product upon cleavage of Substrate S-1 by recombinant BACE. The reaction was stopped with 100 μl of 4% TFA in H2O. In order to separate the cleavage products and thereby detect activity of recombinant BACE, 50 microliters of the reaction mixture was injected into a Hewlett Packard Model 1100 HPLC equipped with an Alltech Rocket™ column (7 mm i.d., ×53 mm length, C18, 3 μm) pre-equilibrated with 88% Reagent A (0.1% TFA in water), 12% Reagent B (0.1% TFA in acetonitrile). The flow rate over this column was 3 ml per minute.

[2] = system: polypeptide substrate; conditions: assayed with a polypeptide substrate; cited from earlier work

Molecule | Activity Assays (Fluorescence Peak Area) [1] | k(cat)/K(m), fold less than β-secretase [2] [fold] | activity compared with BACE ([1]; result in words)
E. Coli BACE: human BACE prepared as above in E. coli without the P33K mutation (protein) MASMTGGQQMGRGSMAGVLPAHGTQHGIRLPLRSGLGGAPLGLRLPRETDEEPEEPGRRGSFVEMVDNLRGKSGQGYYVEMTVGSPPQTLNILVDTGSSNFAVGAAPHPFLHRYYQRQLSSTYRDLRKGVYVPYTQGKWEGELGTDLVSIPHGPNVTVRANIAAITESDKFFINGSNWEGILGLAYAEIARPDDSLEPFFDSLVKQTHVPNLFSLQLCGAGFPLNQSEVLASVGGSMIIGGIDHSLYTGSLWYTPIRREWYYEVIIVRVEINGQDLKMDCKEYNYDKSIVDSGTTNLRLPKKVFEAAVKSIKAASSTEKFPDGFWLGEQLVCWQAGTTPWNIFPVISLYLMGEVTNQSFRITILPQQYLRPVEDVATSQDDCYKFAISQSSTGTVMGAVIMEGFYVVFDRARKRIGFAVSACHVHDEFRTAAVEGPFVTLDMEDCGYNIPQTDES | 31.03 and 45.80 and 31.86 | – | –
β-secretase with the pro-segment intact: β-secretase with the pro-segment intact, from Shi et al., 2001 (protein, UniProt P56817 22-501, looked up, pro-form) pro-form: TQHGIRLPLRSGLGGAPLGLRLPRETDEEPEEPGRRGSFVEMVDNLRGKSGQGYYVEMTVGSPPQTLNILVDTGSSNFAVGAAPHPFLHRYYQRQLSSTYRDLRKGVYVPYTQGKWEGELGTDLVSIPHGPNVTVRANIAAITESDKFFINGSNWEGILGLAYAEIARPDDSLEPFFDSLVKQTHVPNLFSLQLCGAGFPLNQSEVLASVGGSMIIGGIDHSLYTGSLWYTPIRREWYYEVIIVRVEINGQDLKMDCKEYNYDKSIVDSGTTNLRLPKKVFEAAVKSIKAASSTEKFPDGFWLGEQLVCWQAGTTPWNIFPVISLYLMGEVTNQSFRITILPQQYLRPVEDVATSQDDCYKFAISQSSTGTVMGAVIMEGFYVVFDRARKRIGFAVSACHVHDEFRTAAVEGPFVTLDMEDCGYNIPQTDESTLMTIAYVMAAICALFMLPLCLMVCQWRCLRCLRQQHDDFADDISLLK | – | 2.3 | –
E. Coli P33K-BACE: recombinant human BACE with proline to lysine mutation at position 33, terminated at S432, expressed in E. coli and refolded (protein, listed as Homo sapiens, Amino acid sequence of human BACE with P33K mutation.) TQHGIRLPLRSGLGGAPLGLRLPRETDEEPEEKGRRGSFVEMVDNLRGKSGQGYYVEMTVGSPPQTLNILVDTGSSNFAVGAAPHPFLHRYYQRQLSSTYRDLRKGVYVPYTQGKWEGELGTDLVSIPHGPNVTVRANIAAITESDKFFINGSNWEGILGLAYAEIARPDDSLEPFFDSLVKQTHVPNLFSLQLCGAGFPLNQSEVLASVGGSMIIGGIDHSLYTGSLWYTPIRREWYYEVIIVRVEINGQDLKMDCKEYNYDKSIVDSGTTNLRLPKKVFEAAVKSIKAASSTEKFPDGFWLGEQLVCWQAGTTPWNIFPVISLYLMGEVTNQSFRITILPQQYLRPVEDVATSQDDCYKFAISQSSTGTVMGAVIMEGFYVVFDRARKRIGFAVSACHVHDEFRTAAVEGPFVTLDMEDCGYNIPQTDES | 38.41 and 26.50 and 32.84 | – | essentially the same activity of BACE
CHO BACE: human BACE construct Asp2-2L-TM-His6 expressed in CHO cells; 50:50 mixture of two isoforms (control) (protein) TQHGIRLPLRSGLGGAPLGLRLPRETDEEPEEPGRRGSFVEMVDNLRGKSGQGYYVEMTVGSPPQTLNILVDTGSSNFAVGAAPHPFLHRYYQRQLSSTYRDLRKGVYVPYTQGKWEGELGTDLVSIPHGPNVTVRANIAAITESDKFFINGSNWEGILGLAYAEIARPDDSLEPFFDSLVKQTHVPNLFSLQLCGAGFPLNQSEVLASVGGSMIIGGIDHSLYTGSLWYTPIRREWYYEVIIVRVEINGQDLKMDCKEYNYDKSIVDSGTTNLRLPKKVFEAAVKSIKAASSTEKFPDGFWLGEQLVCWQAGTTPWNIFPVISLYLMGEVTNQSFRITILPQQYLRPVEDVATSQDDCYKFAISQSSTGTVMGAVIMEGFYVVFDRARKRIGFAVSACHVHDEFRTAAVEGPFVTLDMEDCGYNIPQTDESHHHHHH | 83.32 and 85.20 and 78.07 | – | –
